Reference: publication PMC9486944, “Structurally Informed Mutagenesis of a Stereochemically Promiscuous Aldolase Produces Mutants That Catalyze the Diastereoselective Syntheses of All Four Stereoisomers of 3-Deoxy-hexulosonic Acid” (ACS Catalysis, 2022)
Blank lines part the entries; values can stand above or below the molecule they belong to.

Legend:
[1] = molecular target: T1, SsKDG-aldolase (Saccharolobus solfataricus, UniProt O54288, T157V/A198L); assay: X-ray crystal structure; type: binding; conditions: Variant 3; 2 min soak in 30 mM ligand; active site, covalent (Lys155 Schiff base)
T1 construct: full length, pET-3a in E. coli BL21 (DE3); heat treatment, anion exchange, gel filtration; no tag mentioned; 293 C-alpha positions; tetramer
From the text: X-ray crystal structure on SsKDG-aldolase | which enabled us to determine the structure of the […] complex

[2] = molecular target: SsKDG-aldolase Variant 2 (T157V/D181Q/A198L) (Sulfolobus solfataricus); assay: crystal structure; hanging-drop vapor diffusion at 18 °C; 11–15% PEG4K, 4–12% isopropanol, 0.1 M HEPES pH 5.9–6.8; unsoaked crystals, crystals soaked in 30 mM 3-deoxy-hexulosonic acid, Variant 2 also cocrystallized with 100 mM pyruvate
[3] = substrate: CC(=O)C(=O)O; assay: thiobarbituric acid assay of aldol product; type: biochemical, Saccharolobus solfataricus; conditions: 50 mM sodium phosphate pH 6.0, 70 °C
From the text: thiobarbituric acid assay of aldol product on SsKDG-aldolase

[4] = substrate: O=C[C@@H](O)CO; assay: purified protein; conditions: 50 mM sodium phosphate pH 6.0, 70 °C
[5] = substrate: O=C[C@H](O)CO; assay: purified protein; conditions: 50 mM sodium phosphate pH 6.0, 70 °C
[6] = Variant 3, near-saturating D-glyceraldehyde
[7] = Variant 3, near-saturating pyruvate
[8] = Variant 4, near-saturating D-glyceraldehyde
[9] = Variant 4, near-saturating pyruvate

Molecule: O=C(O)C(=O)C[C@@H](O)[C@@H](O)CO [L-KDGlc]
X-ray crystal structure [1]: which enabled us to determine the structure of the L-KDGlc complex

stoichiometry N [2]: 4
Molecule: SsKDG-aldolase Variant 2 (T157V/D181Q/A198L) (enzyme)

B1: SsKDG-aldolase (Saccharolobus solfataricus; A198L/T157V) (protein)
chain: PEIITPIITPFTKDNRIDKEKLKIHAENLIRKGIDKLFVNGTTGLGPSLSPEEKLENLKAVYDVTNKIIFQVGGLNLDDAIRLAKLSKDFDIVGIASYAPYYYPRMSEKHLVKYFKTLCEVSPHPVYLYNYPTATGKDIDAKVAKEIGCFTGVKDVIENIIHTLDYKRLNPNMLVYSGSDMLIATVASTGLDGNVALGSNYLPEVTVTIKKLAMERKIDEALKLQFLHDEVIEASRIFGSLSSNYVLTKYFQGYDLGYPRPPIFPLDDEEERQLIKKVEGIRAKLVELKILKE
notes: full length, pET-3a in E. coli BL21 (DE3); heat treatment, anion exchange, gel filtration; no tag mentioned; 293 C-alpha positions; tetramer
Km [3, 6]: 2.9 (±0.1) mM
Vmax [3, 6]: 1.7 µmol/min/mg
Km [4, 7]: 37.6 (±0.2) mM
Vmax [4, 7]: 6.1 µmol/min/mg
Km [5, 7]: 19.5 (±0.2) mM
Vmax [5, 7]: 1.8 µmol/min/mg

B2: SsKDG-aldolase (Saccharolobus solfataricus; A198F/Y103F/Y130F) (protein)
chain: PEIITPIITPFTKDNRIDKEKLKIHAENLIRKGIDKLFVNGTTGLGPSLSPEEKLENLKAVYDVTNKIIFQVGGLNLDDAIRLAKLSKDFDIVGIASYAPYFYPRMSEKHLVKYFKTLCEVSPHPVYLFNYPTATGKDIDAKVAKEIGCFTGVKDTIENIIHTLDYKRLNPNMLVYSGSDMLIATVASTGLDGNVAFGSNYLPEVTVTIKKLAMERKIDEALKLQFLHDEVIEASRIFGSLSSNYVLTKYFQGYDLGYPRPPIFPLDDEEERQLIKKVEGIRAKLVELKILKE
notes: as for B1
Km [3, 8]: 0.3 (±0.04) mM
Vmax [3, 8]: 0.09 µmol/min/mg
Km [4, 9]: 6.3 (±0.18) mM
Vmax [4, 9]: 0.06 µmol/min/mg
Km [5, 9]: 6.9 (±0.2) mM
Vmax [5, 9]: 0.11 µmol/min/mg
